Test: soluble on expression in E. coli; label from the status in PepcDB or PDB records
With “GPGSMVDDFSSLSSPYVFLHGPLCSKDTCAVAAIGTTARLPYARPHSLLPLTSFLALRPAVSSGGLRHTRAYTHLLDTRVQVRIAMSEAAPPPVLGTASSAVAPQPFGGSEASRKRRLKPISFQRMAMIQEEIARIDKHLEALEASESKVVDPDSVGQHNLTTEDVIDPVVLHMLTVELCQLAASGDAVGARILLTGGADPNSRDYDGRTLLHIACMNGRLSVVTVLLEFSADASLLDRDGNTPLEVAEEYGFGDVAQVLSGYFDAGANAVPDSFTWKPPSFESTPVSIHQPDFSAVP” the “soluble on expression in E. coli” value was “not soluble”. In the case of “GPGSMVKKMGRDEARAGVERRPPPMLKAERQAAFRRKVRNELLLSGRERKDAERQRMEEFRRLCKAEGIQSKRLQEYDAMREEAANKLGEKLNHIEYDQSLTNAEKRKRRYNLKRNYAGQTVMDLVQKQEKHHNALTKVEKIRKKRQEEIEAARVAKRERDEMKVKRIKERMAQNALYAQRTRKGQPVMSGRVEALLNKIQRNQQQ”, the “soluble on expression in E. coli” value is reported as “soluble”. With “GPGSMVSTRETLSVEEQRYLDQELPPRELLTSLRSRDRSPTDDNETDVTVPGDSFGIMRNRVAFYKPVPRDVYSGELGECFPEGCHPLRCVNPATLHHLSERFGVSIREAVKAMQNAQMDINIAIDELCRRKCIDPPAGSFGLVGLESYASETFCLVNFTLPSLEATRDDDVLDALHELTLSAAEIPLDTPTEDLVDKFVNNWTVEDGRSCKDVLDMYDLGVNKIVLLPHGDYSVEGFYVLHPVKEDTPNIGTGAAACCLDLRTGIHNRFRFHVERIADSVSEHVIRELVHYGQDVHVLRQAYWFKPEYSVEEYIRFKESLLQPSASVFEMRYAVLAVGSYALPGYRNLVEMEKLKVAQHKYEKHYEDFMSPGKWLTSDNSQLQTVAAGGGNAPGAALHMHTNGPDVALNAMETRAGPLRRTLETSIQAHGDRVFSRFYRNNHH” the “soluble on expression in E. coli” value was “not soluble”. For “GPHSMRYYETATSRRGLGEPRYTSVGYVDDKEFVRFDSDAENPRYEPQVPWMEQEGPEYWERITQVAKGQEQWFRVNLRTLLGYYNQSAGGTHTLQRMYGCDVGSDGRLLRGYEQFAYDGCDYIALNEDLRTWTAADMAAQITRRKWEQAGAAEYYRAYLEGECVEWLHRYLKNG”, the “soluble on expression in E. coli” value was “soluble”. With “GPLDLSRDECKRILRKLELEAYAGVISALRAQGDLTKEKKDLLGELSKVLSISTERHRAEVRRAVNDERLTTIAHNMSGPNSSSEWSIEGRRLVPLMPRLVPQTAFTVTANAVANAAIQHNASLPVPAETGSK” the “soluble on expression in E. coli” value was “soluble”. For “GPLGSEVKKKKNKKKNKKVNGLPPEIAAVPELAKYWAQRYRLFSRFDDGIKLDREGWFSVTPEKIAEHIAGRVSQSFKCDVVVDAFCGVGGNTIQFALTGMRVIAIDIDPVKIALARNNAEVYGIADKIEFICGDFLLLASFLKADVVFLSPPWGGPDYATAETFDIRTMMSPDGFEIFRLSKKITNNIVYFLPRNADIDQVASLAGPGGQVEIEQNFLNNKLKTITAYFGDLIRRPASET”, the “soluble on expression in E. coli” value was “soluble”. With “GPLGSEWYYGNVTRHQAECALNERGVEGDFLIRDSESSPSDFSVSLKASGKNKHFKVQLVDNVYCIGQRRFHTMDELVEHYKKAPIFTSEHGEKLYLVRALQ” the “soluble on expression in E. coli” value was “soluble”. For “GPLGSKLNDILHVYEKSKERELQSQLFNAWRNRFCFYTEECNIQAISKRNYQLEKMVLKKFRERLLEIVKSEE”, the “soluble on expression in E. coli” value was “soluble”. For “GPLGSMADSQDPLHERTRRLLSDYIFFCAREPDTPEPPPTSVEAALLRSVTRQIQQEHQEFFSSFCESRGNRLELVKQMADKLLSKDQDFSWSQLVMLLAFAGTLMNQGPYMAVKQKRDLGNRVIVTRDCCLIVNFLYNLLMGRRHRARLEALGGWDGFCRFFKNPLPLG”, the “soluble on expression in E. coli” value was “soluble”. With “GPLGSMASKKVCIVGSGNWGSAIAKIVGGNAAQLAQFDPRVTMWVFEEDIGGKKLTEIINTQHENVKYLPGHKLPPNVVAVPDVVQAAEDADILIFVVPHQFIGKICDQLKGHLKANATGISLIKGVDEGPNGLKLISEVIGERLGIPMSVLMGANIASEVADEKFCETTIGCKDPAQGQLLKELMQTPNFRITVVQEVDTVEICGALKNVVAVGAGFCDGLGFGDNTKAAVIRLGLMEMIAFAKLFCSGPVSSATFLESCGVADLITTCYGGRNRKVAEAFARTGKSIEQLEKELLNGQKLQGPETARELYSILQHKGLVDKFPLFMAVYKVCYEGQPVGEFIHCLQNHPEHM” the “soluble on expression in E. coli” value was “soluble”. With “GPLGSNIEQYIHDLDSNSFELDLQFSEDEKRLLLEKQAGGNPWHQFVENNLILKMGPVDKRKGLFARRRQLLLTEGPHLYYVDPVNKVLKGEIPWSQELRPEAKNFKTFFVHTPNRTYYLMDPSGNAHKWCRKIQEVWRQRYQSHPDAAVQ” the “soluble on expression in E. coli” value was “soluble”. For “GPLGSPILELKEKIQPEILELIKQQRLNRLVEGTCFRKLNARRRQDKFWYCRLSPNHKVLHYGDLEESPQGEVPHDSLQDKLPVADIKAVVTGKDCPHMKEKGALKQNKEVLELAFSILYDSNCQLNFIAPDKHEYCIWTDGLNALLGK”, the “soluble on expression in E. coli” value was “soluble”. In the case of “GPYGAPAGPLIVPYNLPLPGGVVPRMLITILGTVKPNANRIALDFQRGNDVAFHFNPRFNENNRRVIVCNTKLDNNWGREERQSVFPFESGKPFKIQVLVEPDHFKVAVNDAHLLQYNHRVKKLNEISKLGISGDIDLTSASYTMI”, the “soluble on expression in E. coli” value is reported as “soluble”. For “GQLAQDGVPEWFHGAISREDAENLLESQPLGSFLIRVSHSHVGYTLSYKAQSSCCHFMVKLLDDGTFMIPGEKVAHTSLDALVTFHQQKPIEPRRELLTQPCRQKD”, the “soluble on expression in E. coli” value was “soluble”. With “GRAGGRTLGEQWKEKLNAMGKEEFFSYRKEAILEVDRTEARRARREGNKVGGHPVSRGTAKLRWLVERRFVQPIGKVVDLGCGRGGWSYYAATMKNVQEVRGYTKGGPGHEEPMLMQSYGWNIVTMKSGVDVFYKPSEISDTLLCDIGESSPSAEIEEQRTLRILEMVSDWLSRGPKEFCIKILCPYMPKVIEKLESLQRRFGGGLVRVPLSRNSNHEMYWVSGASGNIVHAVNMTSQVLIGRMDKKIWKGPKYEEDVNLGSGTRAVGK” the “soluble on expression in E. coli” value was “soluble”. In the case of “GSAQLLKSVFVKNVGWATQLTSGAVWVQFNDGSQLVMQAGVSSISYTSPDGQTTRYGENEKLPEYIKQKLQLLSSILLMFSNPTPVFQ”, the “soluble on expression in E. coli” value is reported as “soluble”. With “GSARDISSTNVTDLTVSPSKIEDGGKTTVKMTFDDKNGKIQNGDMIKVAWPTSGTVKIEGYSKTVPLTVKGEQVGQAVITPDGATITFNDKVEKLSDVSGFAEFEVQGRNLTQTNTSDDKVATITSGNKSTNVTVHKSEAGTSSVFYYKTGDMLPEDTTHVRWFLNINNEKSYVSKDITIKDQIQGGQQLDLSTLNINVTGTHSNYYSGQSAITDFEKAFPGSKITVDNTKNTIDVTIPQGYGSYNSFSINYKTKITNEQQKEFVNNSQAWYQEHGKEEVNGKSFNHTVHNINANAGIEGTVK” the “soluble on expression in E. coli” value was “soluble”. For “GSCSSKPANTAKGEKGSDKTGKDLELKLSFQEGIAPGESLNEKLDFMEKLGVVGFEPGGGGLAGRVNEIKQALNGRNIKVSAICAGFKGFILSTDPAIRKECMDTMKEIIAAAGELGSTGVIIVPAFNGQVPALPHTMETRDFLCEQFNEMGTFAAQHGTSVIFEPLNRKECFYLRQVADAASLCRDINNPGVRCMGDFWHMTWEETSDMGAFISGGEYLQHVHVASRKRRSMPGEDGDADNYINGFKGLKMIGYNNYVSFECGCQGDRNVVVPAAVKLLREQWEQA”, the “soluble on expression in E. coli” value was “soluble”. For “GSEDTMDRINKDHDHTTSVASRFILADVITSTAFSNASGDINTYASSYIEYEVGVDNQLYYAEVRENEPSSSSTFNNSWNGIYSSLKNARIIIDQCGEGGRDHGNDVTRGMAEVMAAYNCALIADFFGDAPCSQAALVDEKGSPVYMTPKMDTQQEIYTQIISYLDDAIANLQKEDLADVTEQDFLYAGDADKWLKFAYGLKARYTMRLINRSSNKSADYEKVLDYVSKSFTSADDQAAFDIYDSNNINPFYGFYNSRAGFGASTSLGTKLLAYNDPRANRAFFTPIVDKKRSQVAANDPSLVPAPNGSPDQSTSKYGISAFVYAKTAPTLLMSYHELMFLKAEALCRLNRDAEDALKEAVVAGLLNAENSISIAIKELGSGLNTNSSEVITETSAGKYFDDVVKAKYAANPLQETMIQKYLAMWGASGEATETYNDFRRMKGLNENFITLTNPNNSSKFPLRYPYGNSDTAANPEVKAAYGNGDYVYSEPVWWAGGSR”, the “soluble on expression in E. coli” value was “soluble”. For “GSENIYTTLKFESMMQQRVIQIRSIPEEEYHELVSVQFKTDGGKYEKGEKQDLELSEKKTENGKDTESWGWNENQDSDEHDGWDEELDIDVDNVPIQVSVFVQSAAKVFTEFEQGCDTIGRSKVESIYLYKFNLLQTAFFAMVSEKVNDWTQLYKDVRYLYTENPKLLQLMELNSRRLDLNLNLIKKTIYKLVNDQLQELKDNERTPDWDITISSLLPYLKKTALPTLYKLEDNTILVALIRYIVHDLVIDNILHWRVISEKSSENLSEFIMLLLSGLEIPRLNLIETYRHSREKLGILSKILTAHLKDILEMFYEGEFFLFETDEIVQWIILLFADTPTRRDCIDEIRRVREEATD”, the “soluble on expression in E. coli” value was “soluble”. For “GSFEEDLSQKNTWWSRGIYELLGYTPFEVEPRAELFFQHIKEPHRTLIKEHYLHLNQSQETQYISEDYEILTKKGEGRWLNSSVKLIRDEKGTLLKAQGAILDVT”, the “soluble on expression in E. coli” value was “not soluble”. For “GSFLPNSEQQKSVDIVFSSPQDLTVSLIPVSGLKAGKNAPSAKIAKLVVNSTTLKEFGVRGISNNVVDSTGTAWRVAGKNTGKEIGVGLSSDSLRRSDSTEKWNGVNWMTFNSNDTLDIVLTGPAQNVTADTYPITLDVVGYQP”, the “soluble on expression in E. coli” value was “soluble”. In the case of “GSGMEQFPKETVVESSGPKVLETAEEIQERRQEVLTRYQSFKERVAERGQKLEDSYHLQVFKRDADDLGKWIMEKVNILTDKSYEDPTNIQGKYQKHQSLEAEVQTKSRLMSELEKTREERFTMGHSAHEETKAHIEELRHLWDLLLELTLEKGDQLLRAL”, the “soluble on expression in E. coli” value is reported as “soluble”. For “GSGSRMKTVDKSKTLTKFEEFFSLQDYKDRVFEAIEKYPNVRSIEVDYLDLEMFDPDLADLLIEKPDDVIRAAQQAIRNIDRLRKNVDLNIRFSGISNVIPLRELRSKFIGKFVAVDGIVRKTDEIRPRIVKAVFECRGCMRHHAVTQSTNMITEPSLCSECGGRSFRLLQDESEFLDTQTLKLQEPLENLSGGEQPRQITVVLEDDLVDTLTPGDIVRVTGTLRTVRDERTKRFKNFIYGNYTEFLEQEFEELQISEEDEEKIKELAGDPNIYEKIIR”, the “soluble on expression in E. coli” value was “soluble”. In the case of “GSGTMEKGTFTLKDIYKQIEAMNKMGPVRKIFEMLPFGLGLKVDNDVMEMTQEKMKKFRVIMDSMTEEELLNPKIIDSSRIRRIAIGSGTSPQEVKELLNYYKTMKNLMKKMKKNKLPI”, the “soluble on expression in E. coli” value is reported as “soluble”. With “GSHGGIEGVKGAASGVVGELARARLALDERGQKLSDLEERTAAMMSSADSFSKHAHEMMLKYK” the “soluble on expression in E. coli” value was “soluble”. For “GSHMAMAYVIRDEWGNQIWICPGCNKPDDGSPMIGCDDCDDWYHWPCVGIMAAPPEEMQWFCPKCANKIKKDKKH”, the “soluble on expression in E. coli” value was “soluble”. With “GSHMASGDATDITIYYKTGWTHPHIHYSLNQGAWTTLPGVPLTKSEYEGYVKVTIEAEEGSQLRAAFNNGSGQWDNNQGRDYDFSSGVHTLADGRILSGTPK” the “soluble on expression in E. coli” value was “soluble”.

— the DeepSol protein solubility set
